± gives the standard deviation.

This data set can be described thus: protein stability index of a GFP-peptide fusion (GPS, HEK-293T) (PSI 1-6); higher = more stable. The settings on record: c terminus: a fixed tail appended.
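Note: 24-mer peptide tiles fused after GFP, lentivirally expressed, FACS-sorted into six equal bins by GFP/DsRed ratio, decoded by Illumina sequencing, PSI is the read-weighted mean bin number.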

In the case of RPVAPRRPRDAVGQRGAQGAGRRR [SMAD6], the protein stability index by setting is: (treatment: DMSO) 5.27 ± 0.23; (treatment: MLN4924 1 uM, 8 h) 5.43 ± 0.14.
In the case of RQERVSLYPFQIHSIALSTFASLI [CDS1], the protein stability index runs as follows: (treatment: DMSO) 3.04 ± 0.61; (treatment: MLN4924 1 uM, 8 h) 2.92 ± 0.49.
For RQLTKPRPVILDPADPTGNLGGGD [OAS1] the same measures were 4.65 ± 0.23 and 4.48 ± 0.31.
For RQLVEADINGLRRILDELTLCKAD [KRT36] the same measures were 3.2 ± 0.24 and 3.32 ± 0.26.
For RQRFRHLRYQETPGPREALSQLRV [ZNF232], the protein stability index was 3.13 ± 0.27 (treatment: DMSO) and 3.39 ± 0.28 (treatment: MLN4924 1 uM, 8 h).
As for RRASICCTQLGSLSALKHAVLGLY [SCARA5], the protein stability index (treatment: DMSO) came to 2.44 ± 0.38 and the protein stability index (treatment: MLN4924 1 uM, 8 h) worked out at 2.07 ± 0.28.
As to RRFLLCLYLVGFLDLFGVSMVVPL [MFSD9], the protein stability index turned out to be 2.91 ± 0.57 (treatment: DMSO) and 3.4 ± 0.17 (treatment: MLN4924 1 uM, 8 h).
For RRHCQACRLKRCVDIGMMKEFILT [VDR], the protein stability index is, setting by setting: (treatment: DMSO) 2.77 ± 0.72; (treatment: MLN4924 1 uM, 8 h) 2.15 ± 0.28.
For RRHPQGAWKELDRNYLNYGEEGAP [CHGB] the same measures were 4.05 ± 0.28 and 4.1 ± 0.34.
For RRILDELTLCRSDLEAQMESLKEE [KRT33B] the same measures were 4.56 ± 0.14 and 4.66 ± 0.11.
Take RRLGLSTLGELKQNLSRSWHDVQV [TPD52L2]: the protein stability index reads like this: (treatment: DMSO) 2.9 ± 0.24; (treatment: MLN4924 1 uM, 8 h) 2.96 ± 0.24.
On to RSKIYLRFLDYEMQNSNECKRNFV [NETO1], for which the protein stability index is 2.1 ± 0.2 (treatment: DMSO) and 2.28 ± 0.091 (treatment: MLN4924 1 uM, 8 h).
With RSRLRPRDDLDRLGVFLDYEAGVL [TRIM14], the protein stability index was 2.47 ± 0.4 (treatment: DMSO) and 2.59 ± 0.48 (treatment: MLN4924 1 uM, 8 h).
For RTTKPMAQRSAHCSRPSGSSSSSG [CSNK1G1] the same measures were 4.39 ± 0.18 and 4.43 ± 0.2.
For the sequence RVIMIVTDGRPQDSVAEVAAKARD [MATN2], the protein stability index was found to be 3.165 ± 0.024 (treatment: DMSO) and 2.76 ± 0.6 (treatment: MLN4924 1 uM, 8 h).
In the case of RVSDVQKVLQGGEQEIQFEDFTNT [PKD2L1], the protein stability index by setting is: (treatment: DMSO) 4.8 ± 0.6; (treatment: MLN4924 1 uM, 8 h) 4.85 ± 0.36.
RYGCGHRGCGDGCCCPSCYRRYRF [KRTAP19-2]: the protein stability index is 3.29 ± 0.27 (treatment: DMSO) and 3.62 ± 0.54 (treatment: MLN4924 1 uM, 8 h).
As to RYQKYGYIGTHEYPHFSHRPSTLQ [OAS1], the protein stability index reads like this: (treatment: DMSO) 2.18 ± 0.14; (treatment: MLN4924 1 uM, 8 h) 2.45 ± 0.15.
For the sequence SAAGHLDVVRSLLRRGASVNRTTR [FEM1A], the protein stability index runs as follows: (treatment: DMSO) 3.5 ± 0.33; (treatment: MLN4924 1 uM, 8 h) 3.75 ± 0.33.
With SALTLACYKGHLEMVRFLLEAGAD [ANKRD17], the protein stability index (treatment: DMSO) stood at 3.08 ± 0.31 and the protein stability index (treatment: MLN4924 1 uM, 8 h) came out at 2.69 ± 0.24.
As to SAVLFYVNMYVSIVFFGLISFDRY [P2RY14], the protein stability index runs as follows: (treatment: DMSO) 3.04 ± 0.35; (treatment: MLN4924 1 uM, 8 h) 3.22 ± 0.36.
Consider SDDNAKLPCFNGRVVSWLVSAEGS [DVL3], for which the protein stability index was determined as 3.07 ± 0.19 (treatment: DMSO) and 3.06 ± 0.26 (treatment: MLN4924 1 uM, 8 h).
Consider SDNSGQVSPPESPTVTTSWQSESL [BCL2L13], for which the protein stability index was 5.13 ± 0.2 (treatment: DMSO) and 5.02 ± 0.23 (treatment: MLN4924 1 uM, 8 h).
On to SDNSWVLAGSESLPVETLGPASRM [PBXIP1], for which the protein stability index reads like this: (treatment: DMSO) 3.83 ± 0.15; (treatment: MLN4924 1 uM, 8 h) 4.02 ± 0.5.
With SDVNDNAPRFNQQLYTAYILENRP [PCDHGC5], the protein stability index by setting is: (treatment: DMSO) 2.87 ± 0.26; (treatment: MLN4924 1 uM, 8 h) 3.1 ± 0.31.
Consider SEADSEAGELRKPTQEEWRQVVDI [PPEF2], for which the protein stability index is 5.45 ± 0.15 (treatment: DMSO) and 5.46 ± 0.34 (treatment: MLN4924 1 uM, 8 h).
The matching figures for SEEEKELYLNLALHLASDFFLKHP [PDS5B]: 2.19 ± 0.36 and 2.18 ± 0.36.
On to SEGTNLNAPNSLGVSALCAICGDR [HNF4A], for which the protein stability index came out at 3.88 ± 0.28 (treatment: DMSO) and 4.13 ± 0.26 (treatment: MLN4924 1 uM, 8 h).
The matching figures for SEIKNLERYMCSRFFIDFPHIEEQ [TENT5D]: 2.42 ± 0.15 and 2.22 ± 0.35.

(Values after the supplement of paper PMC10567573.)
